# According to patent US20150376261A1 (VIB VZW, published 2015):
# B1: Nb33 (VHH)
# VHH: QVQLQESGGGLVRPGGSRRLSCVDSERTSYPMGWFRRAPGKEREFVASITWSGIDPTYADSVADRFTISRDVANNTLYLQMNSLKHEDTAVYYCAARAPVGQSSSPYDYDYWGQGTQVTVSS
# B2: Nb69 (VHH)
# VHH: QVQLQESGGGLVQAGGSLRLSCTASGLTLSNYAMGWFRQAPGKEREFVAADTWNGNTYHQDSVKGRFTISRDNAKNTVYLQMNYLKPEDTAVYYCAARGSRRSAYYSSSDYTYRGQGTQVTVSS
# notes: Described as specific for the rat muscarinic receptor M3; Used as the mock fusion partner and as an exogenously added control; also called CA5669; mock Single-domain antibody
# B3: Nb10 (VHH)
# VHH: QVQLQESGGGLVQPGGSLRLSCAASGSFRSIVSMAWYRQAPGKQRELVASSNSGGSTNYADSVKGRFTISRDNAKNTVYLQMNSLKPEDTAVYWCNVQNRLPGFDAFSGRSIAETYWGQGTQVTVSS
# notes: also called CA4910; irrelevant Single-domain antibody
# What was measured:
# [1] = biological target: T1, human mu-opioid receptor (hMor1) (human, UniProt P35372 6-360); test: cell-based or functional assay
# T1 sequence (P35372 6-360, tags or fused parts left off): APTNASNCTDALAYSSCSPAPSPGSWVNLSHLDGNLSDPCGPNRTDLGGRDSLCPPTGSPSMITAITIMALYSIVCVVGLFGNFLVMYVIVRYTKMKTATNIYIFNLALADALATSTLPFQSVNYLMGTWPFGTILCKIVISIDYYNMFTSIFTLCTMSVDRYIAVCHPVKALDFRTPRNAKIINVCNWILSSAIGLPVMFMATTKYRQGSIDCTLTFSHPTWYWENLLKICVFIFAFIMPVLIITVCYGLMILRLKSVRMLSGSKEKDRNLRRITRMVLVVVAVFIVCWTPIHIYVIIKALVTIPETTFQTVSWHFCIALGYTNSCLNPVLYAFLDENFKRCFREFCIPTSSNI
# β2AR365N = biological target: T2, β2AR365N (human, UniProt P07550 2-365); test: not described
# T2 construct: also called non-fused β2AR365N; human β2 adrenergic receptor Gly2 to Gly365, N187E
# [2] = biological target: T1, human mu-opioid receptor (hMor1); test: not described
binder,measurement,setting,value
B1,"IC50 ratio, Dmt1-Dalda: hMor1-34GS-Nb10 versus hMor1-34GS-Nb33 fusion ([3H]-diprenorphine competition, Sf9 membranes; Nb fused to the receptor)",[1],36 ratio
same,"IC50 ratio, KGOP01: hMor1-34GS-Nb10 versus hMor1-34GS-Nb33 fusion",[1],20 ratio
same,"IC50 ratio, naloxone: hMor1-34GS-Nb10 versus hMor1-34GS-Nb33 fusion",[1],2 ratio
B2,binding result,β2AR365N,no binding
B3,binding result,[2],no binding
